B1: DNA polymerase eta (Saccharomyces cerevisiae), Q04049 (parent)
chain: MSKFTWKELIQLGSPSKAYESSLACIAHIDMNAFFAQVEQMRCGLSKEDPVVCVQWNSIIAVSYAARKYGISRMDTIQEALKKCSNLIPIHTAVFKKGEDFWQYHDGCGSWVQDPAKQISVEDHKVSLEPYRRESRKALKIFKSACDLVERASIDEVFLDLGRICFNMLMFDNEYELTGDLKLKDALSNIREAFIGGNYDINSHLPLIPEKIKSLKFEGDVFNPEGRDLITDWDDVILALGSQVCKGIRDSIKDILGYTTSCGLSSTKNVCKLASNYKKPDAQTIVKNDCLLDFLDCGKFEITSFWTLGGVLGKELIDVLDLPHENSIKHIRETWPDNAGQLKEFLDAKVKQSDYDRSTSNIDPLKTADLAEKLFKLSRGRYGLPLSSRPVVKSMMSNKNLRGKSCNSIVDCISWLEVFCAELTSRIQDLEQEYNKIVIPRTVSISLKTKSYEVYRKSGPVAYKGINFQSHELLKVGIKFVTDLDIKGKNKSYYPLTKLSMTITNFDIIDLQKTVVDMFGNQVHTFKSSAGKEDEEKTTSSKADEKTPKLECCKYQVTFTDQKALQEHADYHLALKLSEGLNGAEESSKNLSFGEKRLLFSRKRPNSQHTATPQKKQVTSSKNILSFFTRKK

Variants of: B1
Conditions: with pcna_yeast POL30, P15873
Chain of pcna_yeast POL30, P15873 (P15873 whole entry): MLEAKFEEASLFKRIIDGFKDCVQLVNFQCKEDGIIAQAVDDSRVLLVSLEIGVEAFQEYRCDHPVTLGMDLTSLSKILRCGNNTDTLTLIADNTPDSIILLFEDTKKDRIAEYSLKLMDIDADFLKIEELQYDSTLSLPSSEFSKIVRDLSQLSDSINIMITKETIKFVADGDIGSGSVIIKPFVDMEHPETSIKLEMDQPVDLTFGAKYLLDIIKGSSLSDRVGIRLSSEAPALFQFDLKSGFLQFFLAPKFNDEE

Row | effect of a mutation on the interaction | Variant
1 | decreasing interaction | F627A;F628A

— IntAct's records for PubMed 11545742
